Numbering of substitutions follows the chain as printed. Names and notes keep the numbering of the source.
Legend:
purified protein [1] = substrate: O=C(O)C(=O)Cc1ccccc1; assay: purified protein; format: biochemical, Halalkalibacterium halodurans; details: reductive amination, 500 mM ammonia, 100 microM NADH, glycine-KCl-KOH pH 10.4, 25°C
purified protein [2] = substrate: N[C@@H](Cc1ccccc1)C(=O)O; assay: purified protein; format: biochemical, Halalkalibacterium halodurans; details: oxidative deamination, 2 mM NAD+, 50 mM glycine-KCl-KOH pH 10.4, 25°C

B1: PheDH (Halalkalibacterium halodurans C-125) (protein)
chain: MLTKTPTVTSTLDIFTEMAEHEQVLFCHDPSSGLRAIIAIHDTTLGPALGGCRMYPYQTTEDALRDVLRLSKGMTQKCAAADVDFGGGKAVIIGDPAKDKSANLFRAFGQFVESLNGRFYTGTDMGTTMEDFVHALKETNGIVGIPKEYGGSGDSSVPTAKGVINSLKAISQVVLKDKQFSGRTYAIQGLGKVGFKVAEELLKEGNDLYVSDLQESLPLRLQQLGQRLGRHVEILHGDEIYEAAADVFVPCAQGAILNDATIARLKVKAIAGAANNQLEAERHGQMLHDQGIWFAPDYIVNSGGLIQVADELYGSNEKRVLSKTNAIYDTILEIFHQAERHHITTLQAANQLCERRIRERARRNNFFVNRIRPKWNLRK
Question: Which results are given for B1?
Answer: Km (purified protein [1]): 0.337 ± 0.05 mM; kcat (purified protein [1]): 10.296 ± 0.0167 s⁻¹; Km (purified protein [2]): 6.88 ± 0.41 mM; kcat (purified protein [2]): 2.4847 ± 0.0035 s⁻¹

B2: PheDH (Halalkalibacterium halodurans C-125; E113D/N276L) (protein)
chain: B1 chain with E113D, N276L
Question: With B2 as the protein, how does the Km (purified protein [1]) read?
Answer: 0.812 ± 0.01 mM

Question: And the kcat (purified protein [1])?
Answer: 39.0852 ± 0.0667 s⁻¹

Question: And the Km (purified protein [2])?
Answer: 5.14 ± 0.3 mM

Question: And the kcat (purified protein [2])?
Answer: 11.26 ± 0.055 s⁻¹

B3: PheDH (Halalkalibacterium halodurans C-125; E113D) (protein)
chain: B1 chain with E113D
Question: How did the Km (purified protein [1]) turn out when B3 was run?
Answer: 7.607 ± 0.2 mM

Question: And the kcat (purified protein [1])?
Answer: 25.1237 ± 0.0167 s⁻¹

Question: And the Km (purified protein [2])?
Answer: 8.28 ± 0.4 mM

Question: And the kcat (purified protein [2])?
Answer: 12.193 ± 0.005 s⁻¹

B4: PheDH (Halalkalibacterium halodurans C-125; N276L) (protein)
chain: B1 chain with N276L
Question: For B4, which Km (purified protein [1]) is on record?
Answer: 1.05 ± 0.1 mM

Question: What about the kcat (purified protein [1]) of the same protein?
Answer: 31.321 ± 0.0383 s⁻¹

Question: And the Km (purified protein [2])?
Answer: 8.71 ± 0.2 mM

Question: What about the kcat (purified protein [2]) of the same protein?
Answer: 8.8435 ± 0.0687 s⁻¹
